Assay results as given in patent US20240425885.

How the values were obtained:
Assay in all cases: cleavage_in_vitro
[1] = tested on: T1, OMNI-138 (metagenomic, unknown); settings: TXTL; PAM NNNNGTKA
T1 sequence: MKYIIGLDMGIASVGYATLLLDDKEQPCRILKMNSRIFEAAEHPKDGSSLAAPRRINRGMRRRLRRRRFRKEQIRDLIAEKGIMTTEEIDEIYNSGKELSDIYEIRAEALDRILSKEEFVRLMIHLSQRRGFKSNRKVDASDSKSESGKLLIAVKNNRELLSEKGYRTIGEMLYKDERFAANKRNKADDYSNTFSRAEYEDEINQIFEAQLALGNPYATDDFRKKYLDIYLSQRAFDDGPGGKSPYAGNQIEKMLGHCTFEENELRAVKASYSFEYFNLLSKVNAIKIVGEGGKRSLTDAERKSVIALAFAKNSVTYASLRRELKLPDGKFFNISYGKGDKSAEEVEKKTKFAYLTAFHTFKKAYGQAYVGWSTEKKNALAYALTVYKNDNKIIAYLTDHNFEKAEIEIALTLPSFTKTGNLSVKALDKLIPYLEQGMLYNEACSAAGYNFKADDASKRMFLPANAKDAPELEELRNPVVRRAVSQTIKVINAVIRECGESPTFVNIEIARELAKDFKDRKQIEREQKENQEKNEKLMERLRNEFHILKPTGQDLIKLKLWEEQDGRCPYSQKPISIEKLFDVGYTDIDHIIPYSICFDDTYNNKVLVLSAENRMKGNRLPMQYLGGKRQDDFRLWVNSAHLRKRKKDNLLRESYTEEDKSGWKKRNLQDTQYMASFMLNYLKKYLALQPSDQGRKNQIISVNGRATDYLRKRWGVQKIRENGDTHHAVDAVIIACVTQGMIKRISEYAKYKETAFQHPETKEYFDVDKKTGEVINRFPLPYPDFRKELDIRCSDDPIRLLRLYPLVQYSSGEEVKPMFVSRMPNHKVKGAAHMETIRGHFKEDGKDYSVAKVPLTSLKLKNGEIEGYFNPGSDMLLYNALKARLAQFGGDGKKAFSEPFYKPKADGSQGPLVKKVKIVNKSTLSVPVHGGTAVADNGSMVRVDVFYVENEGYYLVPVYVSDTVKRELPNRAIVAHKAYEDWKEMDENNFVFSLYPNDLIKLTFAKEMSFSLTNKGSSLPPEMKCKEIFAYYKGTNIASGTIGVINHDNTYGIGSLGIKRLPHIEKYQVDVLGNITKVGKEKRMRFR

[2] = tested on: T2, OMNI-95 (metagenomic, unknown); settings: TXTL; PAM NNGYAANN
T2 sequence: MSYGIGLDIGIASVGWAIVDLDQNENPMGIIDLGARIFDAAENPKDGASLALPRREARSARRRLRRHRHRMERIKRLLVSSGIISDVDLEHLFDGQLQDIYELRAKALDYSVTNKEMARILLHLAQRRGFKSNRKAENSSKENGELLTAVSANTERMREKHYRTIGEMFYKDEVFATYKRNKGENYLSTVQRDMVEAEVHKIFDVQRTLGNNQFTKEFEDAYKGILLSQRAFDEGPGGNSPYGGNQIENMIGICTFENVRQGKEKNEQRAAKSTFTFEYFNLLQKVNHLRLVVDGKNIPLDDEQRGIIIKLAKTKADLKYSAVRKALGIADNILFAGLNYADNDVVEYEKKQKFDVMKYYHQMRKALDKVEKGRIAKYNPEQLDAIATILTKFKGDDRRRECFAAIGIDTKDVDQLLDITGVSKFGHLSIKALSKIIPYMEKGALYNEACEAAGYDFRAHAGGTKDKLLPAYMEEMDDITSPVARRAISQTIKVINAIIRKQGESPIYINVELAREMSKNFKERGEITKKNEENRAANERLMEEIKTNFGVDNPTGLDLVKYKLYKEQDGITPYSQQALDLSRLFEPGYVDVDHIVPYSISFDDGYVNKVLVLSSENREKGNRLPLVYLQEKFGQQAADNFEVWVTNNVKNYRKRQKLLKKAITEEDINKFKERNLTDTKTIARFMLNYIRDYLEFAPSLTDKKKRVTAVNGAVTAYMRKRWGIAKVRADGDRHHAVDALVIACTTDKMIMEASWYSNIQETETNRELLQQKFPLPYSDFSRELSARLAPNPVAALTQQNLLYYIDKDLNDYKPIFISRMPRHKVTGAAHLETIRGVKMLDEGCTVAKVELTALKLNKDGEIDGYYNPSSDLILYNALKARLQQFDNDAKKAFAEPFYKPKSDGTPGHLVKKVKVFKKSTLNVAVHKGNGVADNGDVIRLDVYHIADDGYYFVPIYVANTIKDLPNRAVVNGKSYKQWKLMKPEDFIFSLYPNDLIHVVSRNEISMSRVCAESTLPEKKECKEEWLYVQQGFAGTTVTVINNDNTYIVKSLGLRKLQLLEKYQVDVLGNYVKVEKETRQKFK

[3] = tested on: T3, OMNI-94 (metagenomic, unknown); settings: TXTL; PAM NNRRAYGN
T3 sequence: T2 sequence

For “GGAAGAGCAGAGCCUUGGUCUCGUUGUAGUUCCCUAAUUAUGAAAACAAUUAGGUUACUAUGAUAAGGUAGUAUACCGCAAAGCUCUAACGCCUCAUCUUAAUGAUGGGGCGUUAUCUUUUUU / GGAAGAGCAGAGCCTTGGTCTCNNNNNNNN / NNNNNNNNGAGACCAAGGCTCTGCTCTTCC [T2 sgRNA 38 V1 ; T2 protospacer + 8N PAM library (pbPOS T2)]”, which activity (1-depletion score) [1] is on record?
Its activity (1-depletion score) is 0.97.

Which activity (1-depletion score) [2] does the source give for “GGAAGAGCAGAGCCUUGGUCUCAUUUUAGUACCUGGAGAAAGAAAUUUCUUCAGACCUACUAAAACAAGGCUUUAUGCCGAAAGUUUUUUUGAUUUGAAUUGAAUGAGUUGAAAGAGGAUGCCGACGGGUGUCCUCUUUUUUU / GGAAGAGCAGAGCCTTGGTCTCNNNNNNNN / NNNNNNNNGAGACCAAGGCTCTGCTCTTCC [T2 sgRNA 6 V1 ; T2 protospacer + 8N PAM library (pbPOS T2)]” here?
Its activity (1-depletion score) is 0.77.

“GGAAGAGCAGAGCCUUGGUCUCGUUGUAGCUCCCUGUUAAUGAAAACUAACAGGUUACUACAAUAAGGUCUUAGGACCGCAAAGCUCUAUCGCCCUACAUCCGUAGGGCGAUAUCUUUUUAUACAUUUUUU / GGAAGAGCAGAGCCTTGGTCTCNNNNNNNN / NNNNNNNNGAGACCAAGGCTCTGCTCTTCC [T2 sgRNA 5 V1 ; T2 protospacer + 8N PAM library (pbPOS T2)]” was tested. Which activity (1-depletion score) [3] did it give?
Its activity (1-depletion score) is 0.69.
